The values that follow come from publication PMC4641155 (Molecular Imaging and Biology, 2015).

For series [1], the system named is COLO205 tumors. Nature of the series: Ex vivo histology of tumors: cleaved caspase-3 and TUNEL. The following applies: irinotecan-treated tumors; three whole sections, ×400; n = 6; mean ± SEM. Type of series: in vivo, nude mice.
The subject of series [2] is COLO205 cells. Nature of the series: Muse Annexin V & Dead Cell and Caspase 3/7 assays in irinotecan-treated cells. It is filed as cell-based, human.
The test system of series [3] is COLO205 tumors.
Series [4] can be described thus: Human residence time estimates scaled from mouse μSPECT time-activity curves. The following applies: scaled from mouse μSPECT TACs, n = 3 non-purified, n = 6 purified. It is filed as in vivo, human (extrapolated from mouse). An excerpt:
(§1) Volumes of interest (VOIs) were manually drawn on the μSPECT-CT images using PMOD v3.3 (PMOD Technologies, Switzerland) to delineate the regions with distinct SPECT time-activity pattern: heart, liver, kidney, and urinary bladder, as well as whole-body. The average organ activity per volume was obtained from the co-registered μSPECT images and the non-decay corrected time activity curves (TACs) were extracted for each target organ. In order to relate the scanner units (counts/pixel) to radioactivity concentration (kilobecquerel per cubic centimeter), a scanner calibration factor was estimated by scanning a syringe with a known concentration of Tc-99m. TACs for each organ, as well as the TACs representing the activity in the remainder of the body, were fitted by a single exponential decaying function, which was then integrated to obtain the total number of disintegrations (residence time) within these regions. In order to predict human dosimetry using animal data, interspecies extrapolation is necessary. Thus, the residence times (R) were scaled to human values according to the following formula [21]: R/gorganmouse⋅kgTBweightmouse⋅gorgan/kgTBweighthuman=Rhuman
(§2) The human organ and body weight values from the standard adult male phantom taken into account are implemented in the internal dosimetry software (OLINDA/EXM v1.1) and are assumed to be constant across individuals. The body weight and organ masses for the individual mice were obtained post-mortem. For the bladder model, the fraction leaving the body via the urinary excretion system (f) and the biological half-life of the excretion (t1/2) were estimated by fitting a first-order linear system to the sum of activity in the bladder and the activity that had been excreted (calculated as total injected activity minus total body activity): y=f1−expln2/t1/2t

Series [5] can be described thus: Projected human organ absorbed doses and effective dose (OLINDA/EXM). Type of series: in vivo, human (extrapolated from mouse). The settings on record: OLINDA/EXM v1.1, adult male model, 2-h voiding, from mouse data.
Description: as §1, §2
Projected human absorbed doses to various organs and the effective doses (ED) were then computed using the aforementioned dosimetry software (weighting factors from International Commission on Radiological Protection 60), with the human residence times as input, using the standard adult male model and the dynamic voiding bladder model (2-h voiding interval).

Series [6] can be described thus: Bladder model fit of urinary excretion. It is filed as in vivo, CD1−/− nude female mice. The following applies: first-order fit of bladder plus excreted activity.
Description: as §2

Series [7] relates to caspase-3/7. The following applies: cited from earlier work. An excerpt:
Molecular imaging of cell death has gained interest in oncology for monitoring tumor response to cancer therapy. Radiolabeled annexin-V was the first cell death-specific probe to be evaluated clinically. The exposure of membrane aminophospholipids such as PS and PE in the extracellular milieu provides surrogate markers for detecting cell death. PE presents one of the most abundant targets in the membrane bilayer, only preceded by phosphatidylcholine. […] Other ...

The conditions of series [8]: cited from earlier work.
Series [9] can be described thus: Dynamic/static whole-body μSPECT-CT biodistribution in healthy mice. It is filed as in vivo. The settings on record: female, CD1−/− nude, mouse, kidney, iv, 37 MBq, total radioactivity, 37 MBq i.v., 4 h p.i., mean ± SEM, n = 3 non-purified, n = 6 purified, read-out: renal activity (renal excretion).
The nature of series [10]: In vivo tumor uptake by μSPECT-CT in COLO205 tumor-bearing mice. Also noted: species or system nude mice. The following applies: female, nude, mouse, bone marrow (lumbar vertebrae and sacrum), iv, 37 MBq, total radioactivity, lumbar vertebrae and sacrum, μSPECT 4 h p.i., 37 MBq i.v. As for the experimental part: Irinotecan was administered by intra-peritoneal (i.p.) injection (80 mg/kg) three times in 1 week every other day (n = 3).

Where “and” joins values, the source holds several entries; their conditions need not be identical. Equal values may be shown once. Read-outs that look alike come from different tables or passages of the source.

Consider `CCc1c2c(nc3ccc(OC(=O)N4CCC(N5CCCCC5)CC4)cc13)-c1cc3c(c(=O)n1C2)COC(=O)[C@]3(O)CC` [irinotecan], for which, in series [1], the “number of CC3-positive cells” value is reported as 9.5 ± 1.1 and the “number of TUNEL-positive cells” value is reported as 10.5 ± 1.6. In addition, the “level of cell necrosis” value in series [2] (irinotecan 0.43, 4.3, 43 μM, 40 h, Muse assays) is “did not result in an increased level of cell necrosis”. Moreover, in [2] (irinotecan treatment 40 h, annexin-V binding and effector caspase activation), the apoptosis levels entry was “increase in apoptosis levels”. For the same compound, the “overall toxicity with respect to body weight loss” value in [3] (80 mg/kg irinotecan, data not shown) is reported as “No overall toxicity”. The “BLI signal change after treatment” value in [3] (bioluminescence imaging after vs before treatment, irinotecan 80 mg/kg i.p.) was found to be 0.75 ± 0.28. In series [3] (day 5, irinotecan 80 mg/kg i.p. three times in 1 week, vs vehicle), this compound gave a tumor growth inhibition of 34.4 ± 6.9%.

With `CC(C)[C@@H]1NC(=O)[C@H](Cc2ccccc2)NC(=O)[C@@H]2NC(=O)[C@H](Cc3ccccc3)NC(=O)[C@@H]3CCCN3C(=O)CNC(=O)[C@H](Cc3ccccc3)NC(=O)[C@@H]3CNCCCC[C@@H](C(=O)O)NC(=O)[C@@H]4NC(=O)[C@H](CC(N)=O)NC(=O)CNC(=O)[C@H]([C@@H](O)C(=O)O)NC(=O)[C@H](CSC[C@@H](NC(=O)[C@H](CCC(N)=O)NC(=O)[C@H](CCCCNC(=O)c5ccc(NN)nc5)NC(=O)[C@@H](N)CS[C@H]4C)C(=O)N[C@@H](CS[C@H]2C)C(=O)N3)NC1=O` [non-purified [^99mTc]duramycin] [metal not drawn], in series [4], the “Mean human residence time, heart contents” value is 0.0244 h; the “Mean human residence time, kidneys” value was 0.13 h; the “Mean human residence time, liver” value is reported as 1.02 h; the “Mean human residence time, remaining body” value was 3.41 h. Further, the “Mean human residence time, urinary bladder contents” value in series [4] was 0.369 h. In addition, in series [5], the “Mean human absorbed dose, total body” value is 2.52 × 10^−3 mGy/MBq; the “Mean human organ absorbed dose, LLI wall” value is 3.01 × 10^−3 mGy/MBq; the “Mean human organ absorbed dose, ULI wall” value is recorded as 3.10 × 10^−3 mGy/MBq; the “Mean human organ absorbed dose, adrenals” value is given as 3.90 × 10^−3 mGy/MBq. Moreover, in series [5], the “Mean human organ absorbed dose, brain” value was 1.54 × 10^−3 mGy/MBq; the “Mean human organ absorbed dose, breasts” value is 1.51 × 10^−3 mGy/MBq; the “Mean human organ absorbed dose, gallbladder wall” value is on record as 5.38 × 10^−3 mGy/MBq; the “Mean human organ absorbed dose, heart wall” value was 3.12 × 10^−3 mGy/MBq. Further, in series [5], the “Mean human organ absorbed dose, kidneys” value is reported as 8.45 × 10^−3 mGy/MBq; the “Mean human organ absorbed dose, liver” value was 1.27 × 10^−2 ± 5.97 × 10^−3 mGy/MBq and 1.27 × 10 ^−2 mGy/MBq; the “Mean human organ absorbed dose, lungs” value is recorded as 2.52 × 10^−3 mGy/MBq; the “Mean human organ absorbed dose, muscle” value is on record as 2.12 × 10^−3 mGy/MBq. In series [5], the “Mean human organ absorbed dose, osteogenic cells” value is reported as 5.51 × 10^−3 mGy/MBq; the “Mean human organ absorbed dose, ovaries” value is on record as 3.15 × 10^−3 mGy/MBq; the “Mean human organ absorbed dose, pancreas” value is 3.79 × 10^−3 mGy/MBq; the “Mean human organ absorbed dose, red marrow” value was 2.16 × 10^−3 mGy/MBq. In series [5], the “Mean human organ absorbed dose, skin” value was 1.34 × 10^−3 mGy/MBq; the “Mean human organ absorbed dose, small intestine” value is on record as 3.01 × 10^−3 mGy/MBq; the “Mean human organ absorbed dose, spleen” value is recorded as 2.48 × 10^−3 mGy/MBq; the “Mean human organ absorbed dose, stomach wall” value was 2.63 × 10^−3 mGy/MBq. Further, in series [5], the “Mean human organ absorbed dose, testes” value is reported as 2.11 × 10^−3 mGy/MBq; the “Mean human organ absorbed dose, thymus” value is on record as 2.03 × 10^−3 mGy/MBq; the “Mean human organ absorbed dose, thyroid” value is given as 1.87 × 10^−3 mGy/MBq; the “Mean human organ absorbed dose, urinary bladder wall” value was 1.66 × 10^−2 ± 4.55 × 10^−3 mGy/MBq and 1.66 × 10 ^−2 mGy/MBq. Moreover, the “Mean human organ absorbed dose, uterus” value in series [5] is 4.05 × 10^−3 mGy/MBq. In series [6], the “f, mean fraction leaving the body via the urinary excretion system” value came to 0.519 and the “t 1/2, mean biological half-life of the excretion” value was found to be 2.950 h.

As for `O=C1C(=O)N(Cc2cn(CC[18F])nn2)c2ccc(S(=O)(=O)N3CCCC3COc3ccc(F)cc3F)cc21` (stereo not drawn) [[^18F]ICMT11], the “binding affinity for caspase-3/7” value in series [7] is recorded as “nanomolar”. Also, in series [8], the mean effective dose is given as 0.025 mSv/MBq.

With `CC(C)[C@@H]1NC(=O)[C@H](Cc2ccccc2)NC(=O)[C@@H]2NC(=O)[C@H](Cc3ccccc3)NC(=O)[C@@H]3CCCN3C(=O)CNC(=O)[C@H](Cc3ccccc3)NC(=O)[C@@H]3CNCCCC[C@@H](C(=O)O)NC(=O)[C@@H]4NC(=O)[C@H](CC(N)=O)NC(=O)CNC(=O)[C@H]([C@@H](O)C(=O)O)NC(=O)[C@H](CSC[C@@H](NC(=O)[C@H](CCC(N)=O)NC(=O)[C@H](CCCCNC(=O)c5ccc(NN)nc5)NC(=O)[C@@H](N)CS[C@H]4C)C(=O)N[C@@H](CS[C@H]2C)C(=O)N3)NC1=O` [purified [^99mTc]duramycin, metal not drawn], the tissue uptake per volume at 4 h in series [9] was found to be 6.82 ± 0.41 %ID/mL. Moreover, the SUV at 4 h worked out at 0.12 ± 0.02 SUV in series [10] (irinotecan-treated mice) and 0.11 ± 0.01 SUV in series [10] (vehicle-treated mice).

Take “[^99mTc]HYNIC-annexin V: radiolabeled human recombinant annexin V, apoptosis imaging agent”: the mean effective dose in series [8] (in vivo) is listed as 0.011 mSv/MBq.
